Drawing on patent US8278415B2, this text covers IC50 D4, IC50 D6 and staining over background for two molecules.

Positions of bridges follow the written chain, without caps; N, C: chain ends. No end group written: not given here. PEG = not defined here

Assay [1] deals with EGFR on the surface of tumor cells (human) (UniProt P00533).
Assay [2] shares this target. The assay is described as follows: flow cytometry on A431 cells preincubated with 2 ug EGF, 2 uM bio-P190: avidin complex, 4° C. A general note: A flow cytometer gives signals particle by particle.

B1: P190-DOXIL (peptide)
peptide: DPCTWEVWGRECLQ
modifications: disulfide 3-12 (inferred); not fully specified (N-terminus); also: inserted into DOXIL liposomes (doxorubicin)
In assay [1], B1 showed an IC50 D4 of 120 µg/mL and an IC50 D6 of 35 µg/mL. In turn, DPCTWEVWGRECLQ-{PEG-biotin} (disulfide 3-12 (inferred); reading uncertain) [Biotinylated-PEGylated P190] showed a staining over background in assay [2] of 20 fold.
